Experimental data taken from patent publication US8710032B2, “Inhibitors of the mevalonate pathway of Streptococcus pneumoniae” (Northwestern University, priority 2006, dated 2014).

Substrate: Nc1ncnc2c1ncn2[C@@H]1O[C@H](COP(=O)(O)OP(=O)(O)OP(=O)(O)O)[C@@H](O)[C@H]1O
Test: Initial substrate results of analogues with mevalonate kinase (FIG. 8)
Type: biochemical, Streptococcus pneumoniae
Settings: other: ATP
Description: FIG. 8. Initial substrate results [analogue] ranged from 2.0-2.5 mM, except #6 (4.2 mM) and #8 (6.2 mM).
A series of compounds related to compounds 4, 5, 23, and 25 can be synthesized as potential competitive or noncompetitive reversible inhibitors of MK and DPM-DC (See, e.g., FIGS. 6-7). The representative synthesis shown (Scheme 4a) is a modification of that shown in Scheme 4, and R is limited only by availability of the corresponding reagent and synthetic technique, as would be understood by those skilled in the art made aware of this invention (e.g., alkyl, vinyl, acetylenyl, aryl, heteroaryl, etc., via Grignard reaction with the corresponding magnesium bromide or chloride).

B1: mevalonate kinase (Streptococcus pneumoniae TIGR4) (protein)
chain: MTKKVGVGQAHSKIILIGEHAVVYGYPAISLPLLEVEVTCKVVPAESPWRLYEEDTLSMAVYASLEYLNITEACIRCEIDSAIPEKRGMGSSAAISIAAIRAVFDYYQADLPHDVLEILVNRAEMIAHMNPSGLDAKTCLSDQPIRFIKNVGFTELEMDLSAYLVIADTGVYGHTREAIQVVQNKGKDALPFLHALGELTQQAEVAISQKDAEGLGQILSQAHLHLKEIGVSSPEADFLVETTLSHGALGAKMSGGGLGGCIIALVTNLTHAQELAERLEEKGAVQTWIESL
Km: 850 µM
